The values that follow come from US20220204643A1 (published 2022).

For assay [1], the target named is T1, X-linked inhibitor of apoptosis, transcript variant 2 (human, UniProt P98170 1-497).
T1 construct: on protein array; also called XIAP
Description: protein array.

In assay [2] the target is T2, Dpy-30 histone methyltransferase complex regulatory subunit (human, UniProt Q9C005 1-99).
T2 construct: HuProt array protein, full-length recombinant from yeast

In assay [3] the target is T3, rhophilin associated tail protein 1 like, transcript variant 2 (human, UniProt Q96C74 1-230).
T3 construct: HuProt array protein, full-length recombinant from yeast; also called ROPN1L
T3 sequence: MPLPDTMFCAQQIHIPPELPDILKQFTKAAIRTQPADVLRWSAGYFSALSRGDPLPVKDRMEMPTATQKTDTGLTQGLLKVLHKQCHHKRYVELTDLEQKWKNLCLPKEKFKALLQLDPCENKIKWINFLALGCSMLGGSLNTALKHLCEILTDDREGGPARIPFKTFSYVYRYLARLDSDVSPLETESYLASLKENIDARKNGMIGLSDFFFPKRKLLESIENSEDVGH

The target in assay [4] is T4, proteasome 26S subunit, non-ATPase 4, transcript variant 2 (human, UniProt P55036 1-377).
T4 construct: HuProt array protein, full-length recombinant from yeast; also called PSMD4

For assay [5], the target named is T5, Src like adaptor, transcript variant 1 (human, UniProt Q13239 2-276).
T5 construct: HuProt array protein, full-length recombinant from yeast; also called SLA
T5 sequence: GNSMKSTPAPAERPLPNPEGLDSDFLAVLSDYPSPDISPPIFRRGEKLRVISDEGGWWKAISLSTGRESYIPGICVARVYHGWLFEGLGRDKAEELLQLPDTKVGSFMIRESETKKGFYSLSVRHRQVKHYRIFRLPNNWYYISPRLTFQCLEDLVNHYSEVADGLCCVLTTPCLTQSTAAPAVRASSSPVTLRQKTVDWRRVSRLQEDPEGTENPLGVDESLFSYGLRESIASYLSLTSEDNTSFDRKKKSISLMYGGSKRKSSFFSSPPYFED

Assay [6] addresses T6, keratin associated protein 12-3 (human, UniProt P60328 1-96).
T6 construct: HuProt array protein, full-length recombinant from yeast; also called KRTAP12-3
T6 sequence: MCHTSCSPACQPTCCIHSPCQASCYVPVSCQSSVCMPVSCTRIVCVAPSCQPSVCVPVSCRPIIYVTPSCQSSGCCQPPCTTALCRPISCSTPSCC

For another assay, the target named is T7, PAGE family member 2 (human, UniProt Q7Z2X7 1-111).
T7 construct: HuProt array protein, full-length recombinant from yeast; also called PAGE2
T7 sequence: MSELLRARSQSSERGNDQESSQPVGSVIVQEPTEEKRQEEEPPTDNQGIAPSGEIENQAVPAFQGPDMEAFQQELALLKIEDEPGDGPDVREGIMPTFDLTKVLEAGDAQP

Assay [7] deals with T8, SAS-6 centriolar assembly protein, transcript variant 2 (human, UniProt Q6UVJ0 168-657).
T8 construct: HuProt array protein, full-length recombinant from yeast; also called SASS6
T8 sequence: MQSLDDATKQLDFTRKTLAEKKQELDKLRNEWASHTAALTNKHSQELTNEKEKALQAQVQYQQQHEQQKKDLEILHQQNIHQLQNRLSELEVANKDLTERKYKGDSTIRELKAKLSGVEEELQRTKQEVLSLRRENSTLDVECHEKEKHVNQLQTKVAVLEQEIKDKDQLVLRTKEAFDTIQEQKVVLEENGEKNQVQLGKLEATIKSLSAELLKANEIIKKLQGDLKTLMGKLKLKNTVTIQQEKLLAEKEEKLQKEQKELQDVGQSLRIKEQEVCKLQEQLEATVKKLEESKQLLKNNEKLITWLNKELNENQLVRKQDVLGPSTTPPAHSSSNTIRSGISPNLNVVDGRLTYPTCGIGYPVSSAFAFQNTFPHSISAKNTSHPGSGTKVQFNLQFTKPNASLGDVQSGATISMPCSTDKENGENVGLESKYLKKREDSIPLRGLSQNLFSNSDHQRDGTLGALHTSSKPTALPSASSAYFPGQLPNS

For assay [8], the target named is T9, arginine and glutamate rich 1 (human, UniProt Q9NWB6 1-273).
T9 construct: HuProt array protein, full-length recombinant from yeast; also called ARGLU1
T9 sequence: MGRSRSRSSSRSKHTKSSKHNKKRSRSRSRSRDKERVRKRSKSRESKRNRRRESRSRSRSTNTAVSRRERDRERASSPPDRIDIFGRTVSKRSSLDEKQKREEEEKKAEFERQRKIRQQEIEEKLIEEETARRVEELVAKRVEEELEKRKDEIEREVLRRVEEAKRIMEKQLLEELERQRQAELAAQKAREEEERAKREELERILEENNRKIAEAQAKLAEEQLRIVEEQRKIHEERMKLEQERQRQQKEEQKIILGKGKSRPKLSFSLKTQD

The next assay addresses T10, Zinc finger protein 699 (human, UniProt Q32M78 1-642).
T10 construct: HuProt array protein, full-length recombinant from yeast; also called ZNF699

A further assay has as its target T11, nudix hydrolase 21 (human, UniProt O43809 2-227).
T11 construct: HuProt array protein, full-length recombinant from yeast; also called NUDT21

Assay [9] deals with T12, zinc finger protein 431, transcript variant 2 (human, UniProt Q8TF32 1-576).
T12 construct: HuProt array protein, full-length recombinant from yeast; also called ZNF431

Assay [10] deals with T13, methionyl-tRNA synthetase 1 (human, UniProt P56192 1-900).
T13 construct: HuProt array protein, full-length recombinant from yeast; also called MARS
T13 sequence: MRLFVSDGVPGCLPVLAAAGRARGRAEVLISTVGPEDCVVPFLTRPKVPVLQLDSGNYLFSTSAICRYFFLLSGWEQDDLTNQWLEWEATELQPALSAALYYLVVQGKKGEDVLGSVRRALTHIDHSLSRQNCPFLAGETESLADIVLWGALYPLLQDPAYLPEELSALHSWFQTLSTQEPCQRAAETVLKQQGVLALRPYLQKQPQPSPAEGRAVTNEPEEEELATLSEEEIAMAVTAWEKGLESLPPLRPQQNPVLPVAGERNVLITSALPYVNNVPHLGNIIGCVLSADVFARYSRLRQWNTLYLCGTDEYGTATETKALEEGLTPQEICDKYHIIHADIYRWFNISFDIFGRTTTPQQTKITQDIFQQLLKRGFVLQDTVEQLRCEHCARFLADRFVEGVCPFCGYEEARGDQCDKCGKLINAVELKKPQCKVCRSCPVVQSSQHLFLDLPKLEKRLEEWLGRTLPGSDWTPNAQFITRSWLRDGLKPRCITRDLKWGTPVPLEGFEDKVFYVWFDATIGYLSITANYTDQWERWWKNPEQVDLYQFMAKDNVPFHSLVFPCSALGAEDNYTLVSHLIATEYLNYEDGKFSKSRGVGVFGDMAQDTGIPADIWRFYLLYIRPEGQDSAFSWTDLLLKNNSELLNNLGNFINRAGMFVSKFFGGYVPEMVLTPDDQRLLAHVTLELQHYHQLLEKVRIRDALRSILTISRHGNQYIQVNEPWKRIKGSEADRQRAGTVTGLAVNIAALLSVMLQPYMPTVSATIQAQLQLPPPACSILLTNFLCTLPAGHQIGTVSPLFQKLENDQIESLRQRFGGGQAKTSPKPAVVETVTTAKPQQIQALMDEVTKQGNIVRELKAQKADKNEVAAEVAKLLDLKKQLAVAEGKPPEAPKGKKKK

A further assay concerns the target T14, enolase 2 (human, UniProt P09104 2-434).
T14 construct: HuProt array protein, full-length recombinant from yeast; also called ENO2

The target of assay [11] is T15, serpin family B member 6, transcript variant 2 (human, UniProt P35237 1-376).
T15 construct: HuProt array protein, full-length recombinant from yeast; also called SERPINB6
T15 sequence: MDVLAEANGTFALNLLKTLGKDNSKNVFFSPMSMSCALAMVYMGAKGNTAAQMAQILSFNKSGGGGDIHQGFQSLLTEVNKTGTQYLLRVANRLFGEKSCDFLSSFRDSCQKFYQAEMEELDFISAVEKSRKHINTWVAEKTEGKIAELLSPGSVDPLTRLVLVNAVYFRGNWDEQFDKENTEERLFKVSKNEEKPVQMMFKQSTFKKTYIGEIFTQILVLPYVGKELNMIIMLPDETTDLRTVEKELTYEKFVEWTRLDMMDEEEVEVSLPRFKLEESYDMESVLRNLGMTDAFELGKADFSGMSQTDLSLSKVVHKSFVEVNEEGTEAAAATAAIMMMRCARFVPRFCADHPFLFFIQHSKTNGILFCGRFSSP

T11 sequence (O43809 2-227 limits assumed): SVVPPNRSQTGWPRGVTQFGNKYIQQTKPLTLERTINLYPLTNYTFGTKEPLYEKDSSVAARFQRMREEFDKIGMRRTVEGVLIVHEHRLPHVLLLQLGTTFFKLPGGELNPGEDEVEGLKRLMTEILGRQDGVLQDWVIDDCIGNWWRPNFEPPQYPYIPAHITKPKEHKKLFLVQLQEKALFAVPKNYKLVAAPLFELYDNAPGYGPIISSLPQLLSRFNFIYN
T12 sequence (Q8TF32 other isoform, or with tags, fused parts or gaps mutant limits assumed): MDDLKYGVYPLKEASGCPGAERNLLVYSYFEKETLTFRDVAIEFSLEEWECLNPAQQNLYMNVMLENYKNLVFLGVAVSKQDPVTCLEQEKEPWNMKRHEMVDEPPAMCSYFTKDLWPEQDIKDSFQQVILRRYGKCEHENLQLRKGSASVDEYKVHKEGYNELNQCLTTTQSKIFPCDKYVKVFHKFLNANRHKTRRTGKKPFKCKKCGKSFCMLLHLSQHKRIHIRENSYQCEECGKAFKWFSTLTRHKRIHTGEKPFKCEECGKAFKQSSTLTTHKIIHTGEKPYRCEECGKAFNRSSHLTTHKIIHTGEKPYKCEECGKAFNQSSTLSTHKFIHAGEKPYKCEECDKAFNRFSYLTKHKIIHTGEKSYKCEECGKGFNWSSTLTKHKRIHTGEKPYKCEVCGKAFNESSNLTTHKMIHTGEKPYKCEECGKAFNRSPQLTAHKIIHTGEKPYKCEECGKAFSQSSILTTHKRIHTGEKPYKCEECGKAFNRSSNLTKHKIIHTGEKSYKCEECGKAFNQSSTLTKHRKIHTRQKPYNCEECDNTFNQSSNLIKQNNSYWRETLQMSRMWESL
T10 sequence (Q32M78 whole entry): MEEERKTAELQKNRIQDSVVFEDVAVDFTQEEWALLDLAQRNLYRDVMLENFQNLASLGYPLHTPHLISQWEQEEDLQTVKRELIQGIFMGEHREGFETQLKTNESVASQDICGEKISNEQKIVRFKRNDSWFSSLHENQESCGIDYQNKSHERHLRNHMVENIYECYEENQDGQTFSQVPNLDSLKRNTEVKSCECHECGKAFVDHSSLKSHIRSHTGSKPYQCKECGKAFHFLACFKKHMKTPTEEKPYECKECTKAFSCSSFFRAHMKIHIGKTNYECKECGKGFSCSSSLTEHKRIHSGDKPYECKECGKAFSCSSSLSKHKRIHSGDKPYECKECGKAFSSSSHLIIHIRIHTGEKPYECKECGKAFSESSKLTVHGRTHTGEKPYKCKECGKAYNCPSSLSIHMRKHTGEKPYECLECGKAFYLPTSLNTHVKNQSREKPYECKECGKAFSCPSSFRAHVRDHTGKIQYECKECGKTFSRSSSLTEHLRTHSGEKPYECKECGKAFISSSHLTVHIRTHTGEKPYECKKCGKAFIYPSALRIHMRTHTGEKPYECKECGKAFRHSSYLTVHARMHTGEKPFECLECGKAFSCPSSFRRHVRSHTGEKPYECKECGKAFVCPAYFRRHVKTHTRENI
T14 sequence (P09104 2-434 limits assumed): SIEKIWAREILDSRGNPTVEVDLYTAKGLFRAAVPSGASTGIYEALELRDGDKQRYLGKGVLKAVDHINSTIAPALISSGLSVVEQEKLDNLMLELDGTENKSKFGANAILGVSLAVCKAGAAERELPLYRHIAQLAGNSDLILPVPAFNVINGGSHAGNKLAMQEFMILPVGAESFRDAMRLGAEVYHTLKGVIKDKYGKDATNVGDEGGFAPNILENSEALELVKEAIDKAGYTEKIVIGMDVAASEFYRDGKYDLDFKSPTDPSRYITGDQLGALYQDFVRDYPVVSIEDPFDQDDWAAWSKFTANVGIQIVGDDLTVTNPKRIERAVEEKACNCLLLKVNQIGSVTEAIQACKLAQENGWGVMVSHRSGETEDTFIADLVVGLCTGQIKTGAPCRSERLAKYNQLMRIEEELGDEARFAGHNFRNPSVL
T2 sequence (Q9C005 whole entry, one chain of several): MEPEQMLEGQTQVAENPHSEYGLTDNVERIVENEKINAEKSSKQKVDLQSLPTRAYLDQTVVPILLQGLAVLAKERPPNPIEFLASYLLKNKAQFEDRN
T1 sequence (P98170 whole entry, change not shown): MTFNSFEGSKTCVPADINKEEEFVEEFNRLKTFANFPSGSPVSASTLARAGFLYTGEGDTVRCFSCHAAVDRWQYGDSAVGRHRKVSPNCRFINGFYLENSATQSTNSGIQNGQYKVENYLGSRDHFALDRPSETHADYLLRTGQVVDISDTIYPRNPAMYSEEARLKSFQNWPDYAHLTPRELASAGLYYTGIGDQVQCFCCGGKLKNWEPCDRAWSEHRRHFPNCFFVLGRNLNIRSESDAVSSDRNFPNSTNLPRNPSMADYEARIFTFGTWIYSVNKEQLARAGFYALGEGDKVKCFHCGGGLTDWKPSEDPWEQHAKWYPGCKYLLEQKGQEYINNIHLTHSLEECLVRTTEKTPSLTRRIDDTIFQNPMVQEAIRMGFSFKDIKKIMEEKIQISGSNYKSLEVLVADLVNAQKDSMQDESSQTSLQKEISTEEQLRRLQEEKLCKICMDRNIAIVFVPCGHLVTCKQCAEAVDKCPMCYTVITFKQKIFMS
T4 sequence (P55036 whole entry, change not shown): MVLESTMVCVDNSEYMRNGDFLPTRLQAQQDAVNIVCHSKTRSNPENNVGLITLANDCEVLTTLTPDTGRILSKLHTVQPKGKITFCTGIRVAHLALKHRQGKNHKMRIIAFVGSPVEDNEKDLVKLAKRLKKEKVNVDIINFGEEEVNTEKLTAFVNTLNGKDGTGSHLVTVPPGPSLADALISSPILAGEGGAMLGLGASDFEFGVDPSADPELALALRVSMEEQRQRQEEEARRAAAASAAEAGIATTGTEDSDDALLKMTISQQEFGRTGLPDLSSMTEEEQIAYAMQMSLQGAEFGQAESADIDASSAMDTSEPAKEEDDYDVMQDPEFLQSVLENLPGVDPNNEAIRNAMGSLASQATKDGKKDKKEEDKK

B1: TBRE1032 (antibody, V domains shown)
VH: EVQLVESGGGLVQPGGSLRLSCAASGFTFSSYDFHWVRQPTGKGLEWVSAIGTAGDTLYLDSVKGRFTISRENAKNSLYLQMNSLRAGDTAVYYCARVNWNSDTFDSWGQGTLVTVSS
VL: VSSELTQDPAVSVALGQTVRITCQGDSLRRYYASWYQQKAGQAPILVIYGENNRPSGIPDRFSGSGSGNTASLTITGAQAEDEADYYCDSRDSSGNLVVFGGGTKLTVL
notes: VH/VL only
Turning to B1, the binding result in assay [1] is recorded as “binds”.

B2: TMEL1041 (antibody, V domains shown)
VH: EVQLLESGGGLVQPGGSLRLSCAASGFTFRIYAMSWVRQAPGKGLEWVSAISYSGNTTYYADSVKGRFTISRDNSKNTLYLQINNLRAEDTAIYYCAIQEKRELQLRRELDNYWGQGTLVTVSS
VL: PYELTQPPSVSLSPGQTARITCSGDALPKKYAYWYQQKSGQAPVLVIYEDSKRPSGIPERFSGSSSGTTATLTISGAQVDDEGDYYCYSPDSSGNVWVFGGGTKLTVLG
notes: detected with anti-human IgG Fc
Take B2: the binding result in assay [2] and in assay [3] was “binds” throughout.

B3: TMEL1032 (antibody, V domains shown)
VH: QVQLVQSGAEVRKPGASVKVSCKASGYTFTTYYIHWVRQAPGQGLEWMGLINPNGGTTNYAQKFQGRLSMTTDTSTNTVYMELSSLRSEDTAVYYCARKLMSGIVSRGWFDPWGQGTLVTVSS
VL: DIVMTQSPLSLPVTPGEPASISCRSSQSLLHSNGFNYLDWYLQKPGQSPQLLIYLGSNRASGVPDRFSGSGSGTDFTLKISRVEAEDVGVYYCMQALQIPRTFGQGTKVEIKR
notes: as for B2
Turning to B3, the binding result in assay [4] and in assay [5] was “binds” in each case.

B4: TMEL1035 (antibody, V domains shown)
VH: QVQLVESGGGVVQPGRSLRLSCAASGFTFSSYAMHWVRQAPGKGLEWVAVISYDGSNKYYADSVKGRFTISRDNSKNTLYLQMNSLRAEDTAVYYCASPIAVAAPFAYWGQGTLVTVSS
VL: VSSELTQDPAVSVALGQTVRITCQGDSLRSYYASWYQQKPGQAPVLVIYGKNNRPSGIPDRFSGSSSGNTASLTITGAQAEDEADYYCNSRDSSGNLYVFGTGTKVTVLG
notes: as for B2
Turning to B4, the binding result (in [6]; with PAGE family member 2) was “binds” in each case.

B5: TMEL1031 (antibody, V domains shown)
VH: EVQLVESGGGLVQPGGSLRLSCAASGFTVSSNYMSWVRQAPGKGLEWVSVIYSGGSTYYADSVKGRFTISRDNSKNTLSLQMNSLRAEDTAVYYCARESSAAGYDYWGQGTLVTVSS
VL: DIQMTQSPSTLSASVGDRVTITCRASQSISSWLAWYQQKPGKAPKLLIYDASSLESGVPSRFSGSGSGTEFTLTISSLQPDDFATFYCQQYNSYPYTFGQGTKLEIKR
notes: as for B2
In the case of B5, the binding result in [7] and in [8] was “binds” in each case.

B6: TMEL1033 (antibody, V domains shown)
VH: PVQLQESGPGLVKPSETLSLTCTVSGGSVSSGSYYWSWIRQPPGKGLEWIGYIYYSGSTNYNPSLKSRVTISVDTSKNQFSLKLSSVTAADTAVYYCARDRGDYVTHWFDPWGQGTLVTVSS
VL: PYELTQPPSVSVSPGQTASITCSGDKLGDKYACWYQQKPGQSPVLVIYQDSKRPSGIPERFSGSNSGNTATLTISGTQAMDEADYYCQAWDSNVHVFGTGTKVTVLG
notes: as for B2
Take B6: the binding result (with Zinc finger protein 699; with nudix hydrolase 21; in [9]) was “binds” throughout.

B7: TMEL1038 (antibody, V domains shown)
VH: QVQLVQSGAEVKKPGASVKVSCQASGYTFTGYYIHWVRQAPGQGLEWMGWINPNSGGTNYAQKFQGRVTMTRDTSISTAHMELGRLRSDDTAVYYCATPPSRYGGNYYADYWGQGTLVTVSS
VL: ASALTQPASVSGSPGQSITISCTGTSSDVGGYNYVSWYQQHPGKAPQLMIFDVSNRPSGVSNRFSGSKSGDTASLTISGLQAEDEADYYCSSYTSSSTWVFGGGTKLTVLG
notes: as for B2
For the molecule B7, the binding result in assay [10] is reported as “binds”.

B8: TMEL1037 (antibody, V domains shown)
VH: PLQLQESGPGLVKPSETLSLTCTVSGGSISSSSYYWGWIRQSPGKGLEWMGSIYYSGSTYYNPSLKSRVTISVDTSKNQFSLNLSSVTAADTAVYYCARHDYRNYFDYWGQGTLVTVSS
VL: not shown
notes: as for B2
With B8, the binding result with enolase 2 was “binds”.

B9: TMEL1040 (antibody, V domains shown)
VH: EVQLVQSGAEVKKPGESLKISCKGSGYSFTTYWIAWVRQMPGKGLEWMGIIYPADSDTRYSPSFQGQVTMSADQSINTAYLQWSSLKASDTAMYYCARRGREFDYWGQGTLLTVSS
VL: QSALTQPASVSGSPGQSITISCTGTSSDVGSYNLVSWYQQHPGKAPKLMIYEGSKRPSGVSNRFSGSKSGNTASLTISGLQAEDEADYYCCSYAGSSTPWVFGGGTKLTVL
notes: as for B2
In the case of B9, in assay [11], the binding result is “binds”.
